Results: patent US20200291104A1 (UCB, published 2020)
Several values for one entry are separate records, joined by “and”; a condition that tells them apart may be missing. Identical values can stand only once.

Assays:
human TNF-alpha [1] = target: T1, human TNF-alpha (human, UniProt P01375 77-233); test: SPR (Biacore T200); Fab captured by anti-human F(ab')2, human TNF injected at 5 nM
[2] = target: cynomolgus TNF (cynomolgus) (UniProt P79337); test: SPR (Biacore T200); Fab captured by anti-human F(ab')2, cynomolgus TNF injected at 3.125 nM
human TNF-alpha [3] = target: T1, human TNF-alpha; test: cell-based or functional assay
human TNF-alpha [4] = target: T1, human TNF-alpha; test: SPR (Biacore T200); IgG captured by anti-mouse IgG-Fc, human TNF injected at 20 nM

T1 sequence (P01375 77-233 limits assumed): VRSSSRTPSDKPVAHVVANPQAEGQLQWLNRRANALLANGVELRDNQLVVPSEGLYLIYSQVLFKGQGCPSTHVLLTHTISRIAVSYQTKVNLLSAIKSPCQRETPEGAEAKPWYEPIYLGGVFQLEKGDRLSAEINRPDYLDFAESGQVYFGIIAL

Kd (human TNF-alpha [1])	koff (human TNF-alpha [1]) [s⁻¹]	kon (human TNF-alpha [1]) [M⁻¹ s⁻¹]	Kd [2]	koff [2] [s⁻¹]	kon [2] [M⁻¹ s⁻¹]	EC50 (ng/ml), neutralisation in HEK-293-CD40-BLUE reporter assay (human TNF-alpha [3]) [ng/mL]	Kd (human TNF-alpha [4]) [nM]	koff (human TNF-alpha [4]) [s⁻¹]	kon (human TNF-alpha [4]) [M⁻¹ s⁻¹]	Binder
0.0349 nM and 0.035 nM	0.000143	4.09e+06	0.0274 nM and 0.027 nM	0.000102	3.71e+06					2109 rat/human chimeric Fab (Fab, V domains shown) VH: EVQLHQSGAALVKPGASVKLSCKTSGYTFTDNYIHWVKQSPGKSLEWIGYINPSSAYAHYNEKFKTKATLTVDKSTNTAYMELSRLTSEDSATYFCTRRYYSAMPFAYWGQGTLVTVSS VL: DIVMTQSPASLSASLGETVTIECRASEDIYNGLAWYQQKPGKSPHLLIYNSNTLHTGVPSRFSGTGSGTQYSLKINSLQSEDVATYFCQQNYDFPLTFGSGTKLELKR
						0.31	0.025	0.000119	4.7e+06	CA2109 IgG (recombinant rat/mouse chimeric IgG1) (antibody, V domains shown) VH: EVQLHQSGAALVKPGASVKLSCKTSGYTFTDNYIHWVKQSPGKSLEWIGYINPSSAYAHYNEKFKTKATLTVDKSTNTAYMELSRLTSEDSATYFCTRRYYSAMPFAYWGQGTLVTVSS VL: DIVMTQSPASLSASLGETVTIECRASEDIYNGLAWYQQKPGKSPHLLIYNSNTLHTGVPSRFSGTGSGTQYSLKINSLQSEDVATYFCQQNYDFPLTFGSGTKLELK
